Experimental data: the DeepSol protein solubility set

Experiment: soluble on expression in E. coli; label from the status in PepcDB or PDB records
In the case of “PVTNMAELDAMIARVKKAQEEFATYSQEQVDKIFRAASLAANQARIPLAQQAVEESGMGIVEDKVIKNHFASEFIYNKYKDEQTCGILEEDDNLGTMTIAEPVGIICGIVPTTNPTSTAIFKSLISLKTRNGIIFSPHPRAKNSTNDAAKLVLDAAVAAGAPKDIIGWIDQPSVELSNALMKHDDIALILATGGPGMVKAAYSSGKPAIGVGAGNVPVVIDETADIKRAVASVLMSKTFDNGVVCASE”, the “soluble on expression in E. coli” value is reported as “not soluble”.
For “QAAVTDYYKTLHLFFISPEKGKEFERSTSIRRRVKAMPHGVNRLFSSLYYYYTLIQERATPRLQRLLDQLEADYPQNTIPETLRQHLRKDSRR”, the “soluble on expression in E. coli” value was “not soluble”.
In the case of “QAMFERFTDRARRVIVLAQEEARMLNHNYIGTEHILLGLIHEGEGVAAKALESMGISLDAVRQEVEEIIGQGSQPTTGHIPFTPRAKKVLELSLREGLQMGHKYIGTEFLLLGLIREGEGVAAQVLVKLGADLPRVRQQVIQLLSG”, the “soluble on expression in E. coli” value is reported as “soluble”.
In the case of “QCTNGFDLDRQSGQCLDIDECRTIPEACRGDMMCVNQNGGYLCIPRTNPVYRGPYSNPYSTPYSGPYPAAAPPLSAPNYPTISRPLICRFGYQMDESNQCVDVDECATDSHQCNPTQICINTEGGYTCSCTDGYWLLEGQCLDIDECRYGYCQQLCANVPGSYSCTCNPGFTLNEDGRSCQDVNECATENPCVQTCVNTYGSFICRCDPGYELEEDGVHCSDMDECSFSEFLCQHECVNQPGTYFCSCPPGYILLDDNRSCQDINECEHRNHTCNLQQTCYNLQGGFKCIDPIRCEEPYLRISDNRCMCPAENPGCRDQPFTILYRDMDVVSGRSVPADIFQMQATTRYPGAYYIFQIKSGNEGREFYMRQTGPISATLVMTRPIKGPREIQLDLEMITVNTVINFRGSSVIRLRIYVSQYPF”, the “soluble on expression in E. coli” value is reported as “soluble”.
For “QGMQTKKAFLYVFNTMSDWEYGYLIAELNSGRYFKKDLAPLKVITVGANKEMITTMGGLRIKPDISLDECTLESKDLLILPGGTTWSEEIHQPILERIGQALKIGTIVAAICGATDALANMGYLDTRKHTSNNLEYTKMVCPNYKGEKFYELGPAVSDANLVTASGIAPLEFAMEVLKKIDVFTLDALHSWYNLNKTHKPEYFFQLMNSINK”, the “soluble on expression in E. coli” value was “soluble”.
In the case of “QITYWKERQRRKTIRAEEIRGLIYRIWKIYPSLLGQELLESTIFVFMVLAAVARLGAEDVAVYKLLDLVCGMLELPVYAYAAATQTYALQNHAAGKKAAVRSYEK”, the “soluble on expression in E. coli” value is reported as “not soluble”.
For “QKPYKETYGISHITRHDMLQIPEQQKNEKYQVPEFDSSTIKNISSAKGLDVWDSWPLQNADGTVANYHGYHIVFALAGDPKNADDTSIYMFYQKVGETSIDSWKNAGRVFKDSDKFDANDSILKDQTQEWAGSATFTSDGKIRLFYTDFSGKHYGKQTLTTAQVNVSASDSSLNINGVEDYKSIFDGDGKTYQNVQQFIDEGNYSSGDNHTLRDPHYVEDKGHKYLVFEANTGTEDGYQGEESLFNKAYYGKSTSFFRQESQKLLQSDKKRTAELANGALGMIELNDDYTLKKVMKPLIASNTVTDEIERANVFKMNGKWYLFTDSRGSKMTIDGITSNDIYMLGYVSNSLTGPYKPLNKTGLVLKMDLDPNDVTFTYSHFAVPQAKGNNVVITSYMTNRGFYADKQSTFAPSFLLNIKGKKTSVVKDSILEQGQLTVN”, the “soluble on expression in E. coli” value was “soluble”.
In the case of “QLLKVCMKLPKIDWYLGLSCPSNDMPLYLMRLFSRKPVVQMIHGPVGVARSSGYCLVKASAIYYLSNTRESLINALQAYLKTPKPATERYWSTLNASTFVNGLSRERWPKQANPISNRVFWAASLLKWKNVDLLLDALTLENTTTIQSTICYIKPNVPGVEYSTPDFNTKGVDWYESPNNLNELRAQCGVFVSTSVNEP”, the “soluble on expression in E. coli” value is reported as “not soluble”.
In the case of “QLSSFETCAEKEESANTTESAIFEYHCEMSFDPNLLHNNGHNGYPNGTSAALRETGVIEKLLTSYGFIQCSERQARLFFHCSQYNGNLQDLKVGDDVEFEVSSDRRTGKPIAVKLVKIKQEILPEERMNGQVVCAVPHNLESKSPAAPGQSPTGSVCYERNGEVFYLTYTPEDVEGNVQLETGDKINFVIDNNKHTGAVSARNIMLLKKKQARCQGVVCAMKEAFGFIERGDVVKEIFFHYSEFKGDLETLQPGDDVEFTIKDRNGKEVATDVRLLPQGTVIFEDISIEHFEGTVTKVIPKVPSKNQNDPLPGRIKVDFVIPKELPFGDKDTKSKVTLLEGDHVRFNISTDRRDKLERATNIEVLSNTFQFTNEAREMGVIAAMRDGFGFIKCVDRDVRMFFHFSEILDGNQLHIADEVEFTVVPDMLSAQRNHAIRIKKLPKGTVSFHSHSDHRFLGTVEKEATFSNPKTTSPNKGKEKEAEDGIIAYDDCGVKLTIAFQAKDVEGSTSPQIGDKVEFSISDKQRPGQQVATCVRLLGRNSNSKRLLGYVATLKDNFGFIETANHDKEIFFHYSEFSGDVDSLELGDMVEYSLSKGKGNKVSAEKVNKTHSVNGITEEADPTIYSGKVIRPLRSVDPTQTEYQGMIEIVEEGDMKGEVYPFGIVGMANKGDCLQKGESVKFQLCVLGQNAQTMAYNITPLRRATVECVKDQFGFINYEVGDSKKLFFHVKEVQDGIELQAGDEVEFSVILNQRTGKCSACNVWRVCEGPKAVAAPRPDRLVNRLKNITLDDASAPRLMVLRQPRGPDNSMGFGAERKIRQAGVID”, the “soluble on expression in E. coli” value is reported as “soluble”.
In the case of “QNDLMIQSQVKFYTILFSARRATPELEIPEGSFYNGIRGYNLFVAKKDRRTGMLHDMMIYDHSQGFADARIIVADSGKLKMDEGKTFLTLMLHSGETFQNLRSQQTESNAPTPYMRERFRTKEIVIPFDANFSLMDEGAMRGEYVGKNLIQLQRFIDTVTLRVDSASFRNANNLYIQTYNAR”, the “soluble on expression in E. coli” value is reported as “not soluble”.
In the case of “QPLPSAALRRCPPPARVGGRWVSAEKVNEGGSGGGGSQRLTRRARSTARVPAPGTMDAPRASAAKPPTGRKMKARAPPPPGKAATLHVHSDQKPPHDGALGSQQNLVRMKEALRASTMDVTVVLPSGLEKRSVLNGSHAMMDLLVELCLQNHLNPSHHALEIRSSETQQPLSFKPNTLIGTLNVHTVFLKEKVPEEKVKPGPPKVPEKSVRLVVNYLRTQKAVVRVSPEVPLQNILPVICAKCEVSPEHVVLLRDNIAGEELELSKSLNELGIKELYAWDNRRETFRKSSLGNDETDKEKKKFLGFFKVNKRSNSKGCLTTPNSPSMHSRSLTLGPSLSLGSISGVSVKSEMKKRRAPPPPGSGPPVQDKASEKVSLGSQIDLQKKKRRAPAPPPPQPPPPSPLIPNRTEDKEENRKSTMVSLPLGSGSHCSPDGAPQVLSEAEETVSVGSCFASEDTTEDSGVMSSPSDIVSLDSQQDSMKYKDKWATDQEDCSDQDLAGTPDLGPQKSPLWEKNGSENSHLRTEKAVTASNDEEDLLIAGEFRKTLAELDEDLEEMEDSYETDTSSLTSSIHGASNHCPQDAMIPHGDTDAIPVTFIGEVSDDPVDSGLFSNRNNNAGSFDSEGVASRRDSLAPLQAEHSQPHEKAREEVPALHPASHDVGKGIRVALSNISKDGNLMETAPRVTSFASNLHTDNLNAKVKDKVYGCADGERTQATERVNSQPVNEKDSNDKNAALAPTSWHQRGQNPGKSYRLKHGLTTYKIIPPKSEMRCYDRDVSLSTGAIKIDELGNLVSPHATGIRIISLSSSVPEAESQPIGKVREFWRCNSVEKHLGRPSESSARGPPSTPVPTQTQNPESRLQADPKPISPQQKSAHHEGRNPLGEGRNQPPTMGMGHVRVPAAHTTEVTFLKPQRRTSSQYVASAIAKRIGAPKVHADVVRPHGYAEKGYAGKAPVLAAPPVTVKDDRTSSPHSETQGWKDGAQWPCVTPPNNHGEDLAVGAPPRGEVIGPHRKLSTQDRPAAIHRSSCFSLVQSSQRDRVSVGQSCGFSGKQSTSSQEASSASEPRRAPDGTDPPPPHTSDTQACSRELVNGSVRAPGHGEPSHPPGGSGTESHILLEREEKPSVFSTDGNETDSIWPPSIFGPKKKFKPVVQRPVPKDTSLHSALMEAIHSAGGKDRLRKTAEHTGEGRPAKLSYTEAEGERSALLAAIRGHSGTCSLRKVASSASEELQSFRDAALSAQGSESPLLEDLGLLSPPAIPPPPPPPSQALSAPRTASRFSTGTLSNTADARQALMDAIRSGTGAARLRKVPLLV”, the “soluble on expression in E. coli” value is reported as “soluble”.
With “QQKRAFEYEIRFYTGNDPLDVWDRYISWTEQNYPQGGKESNMSTLLERAVEALQGEKRYYSDPRFLNLWLKLGRLCNEPLDMYSYLHNQGIGVSLAQFYISWAEEYEARENFRKADAIFQEGIQQKAEPLERLQSQHRQFQARVSRQTLLALEKEEEEEVFESS” the “soluble on expression in E. coli” value was “soluble”.
In the case of “QSFWEEIAPPFISNEPNVKYIIPNMGIDSKGTIYVTVTKRIQQGANYTSEQLGMYYRPLGDNEQWWKHDPYFDDKIVADIQTDAYGRVYVCTTSSRDQEYQLYINEQNEWRCIFKTSVSTYEHGMAVFRSSTGVTYIGTRHHIFASGVNDFEFNTIYEDSTPMSCRFAEATNSGTIYLALMHETTMSTTILTYQNGEFVDISESELSNSIIASMCSNKEGD”, the “soluble on expression in E. coli” value is reported as “not soluble”.
For “QSILQDLFLLLIKFPKEEKTVEVFDTSPKIQLSNYEQYRQDALLAKAEGEQNKINTVLSYTEKTLAPYVVESELSNLCTQISHFLSSDWKEEECREIKISSQLKSIDLMHFGWNIAQPFGKSRKEISTFLKYTFAHALEDVEVSTLQRKLTNTEGKFLIPLQEKLSTESYSSS”, the “soluble on expression in E. coli” value was “not soluble”.
With “QTNNDEELQDMSDPLAVYTQAGFGITDKGANIKIGQTYQSSQPGTMAMNIIEMKGIGGELFGIRDNDDPMYANVDDSIDSFRLRNFQVEVAKGLGRQLDVNYDVDNDKLDASYSFIQGLPK” the “soluble on expression in E. coli” value was “not soluble”.
In the case of “QVINTFDGVADYLQTYHKLPDNYITKSEAQALGWVASKGNLADVAPGKSIGGDIFSNREGKLPGKSGRTWREADINYTSGFRNSDRILYSSDWLIYKTTDAYQTFTKIRSSSMGVCPKILKKCRRDSDCLAGCVCGPNGFCGS”, the “soluble on expression in E. coli” value is reported as “soluble”.
In the case of “QVKDFVIEPPIKNNLHIYKTFGVFGGKEYSANSMYLVTKKGVVLFDVPWEKVQYQSLMDTIKKRHNLPVVAVFATHSHDDRAGDLSFFNNKGIKTYATAKTNEFLKKDGKATSTEIIKTGKPYRIGGEEFVVDFLGEGHTADNVVVWFPKYNVLDGGCLVKSNSATDLGYIKEANVEQWPKTINKLKAKYSKATLIIPGHDEWKGGGHVEHTLELLNKK”, the “soluble on expression in E. coli” value is reported as “soluble”.
For “QVQLQESGPGLVRPSQTLSLTCTVSGFSLTGYGVNWVRQPPGRGLEWIGMIWGDGNTDYNSALKSRVTMLKDTSKNQFSLRLSSVTAADTAVYYCARERDYRLDYWGQGSLVTVSSG”, the “soluble on expression in E. coli” value was “soluble”.
For “RCIKLYRARKGNAAVKRHMRDTLSLNDAVEKVRAVDAPLSKLAQEALQSYRNYRRNEASELAQALPLNEYLVIQIRNSMAQIMRRFD”, the “soluble on expression in E. coli” value was “not soluble”.
In the case of “RDSSDDWEIPDGQITVGQRIGSGSFGTVYKGKWHGDVAVKMLNVTAPTPQQLQAFKNEVGVLRKTRHVNILLFMGYSTKPQLAIVTQWCEGSSLYHHLHASETKFEMKKLIDIARQTARGMDYLHAKSIIHRDLKSNNIFLHEDNTVKIGDFGLATVKSRWSGSHQFEQLSGSILWMAPEVIRMQDSNPYSFQSDVYAFGIVLYELMTGQLPYSNINNRDQIIEMVGRGSLSPDLSKVRSNCPKRMKRLMAECLKKKRDERPSFPRILAEIEELARELSG”, the “soluble on expression in E. coli” value is reported as “soluble”.
With “REIGENTYIVEGSMTLNDFNEHFDTELESDDVDTIAGYYLTGVGAIPTQEVKEHYEVINKDKRLEFINDKVKDGRVTKLKVIITAAPEEAGE” the “soluble on expression in E. coli” value was “not soluble”.
For “REQGFMFKKELGIESMEDLIEKIRYYKIINRNKGSGTRILFDKFLKENDIDKNSINGYDIEAKTHSAVGAAVSMGKAQIGLGISTISDHYDLEFIPIADENYDLLIPKEKLYDEDIIKFIETLKNEELPFKKSKDTGKIIYGC”, the “soluble on expression in E. coli” value was “not soluble”.
With “RERLLSEAKATLQNYVAIAMTAIKPLYDAAAPGDEAARANAIKLLSAVSYGKDGYLFGYDSQVVRIFRSTSPDGLGKSFVDARDANGVYINR” the “soluble on expression in E. coli” value was “not soluble”.
With “RETFKVLLQGVPDGIDLEGLKTDILSLPHIRSVHDIHLWTLDGESHVMTIHVVYCPDDFSSPQAVFDMKESVREKCSAHGIRHATIELDPEGCSCGMESC” the “soluble on expression in E. coli” value was “not soluble”.
